Results on seven molecules are retold here after patent publication US20110287000A1 (published 2011).

The chains are these.
B6: human CD127 (IL-7Rα) expressed on cells (CD127-transfected CHO cells; PBMC / CD4+ T cells in functional assays) (receptor)
chain: ESGYAQNGDLEDAELDDYSFSCYSQLEVNGSQHSLTCAFEDPDVNTTNLEFEICGALVEVKCLNFRKLQEIYFIETKKFLLIGKSNICVKVGEKSLTCKKIDLTTIVKPEAPFDLSVIYREGANDFVVTFNTSHLQKKYVKVLMHDVAYRQEKDENKWTHVNLSSTKLTLLQRKLQPAAMYEIKVRSIPDHYFKGFWSEWSPSYYFRTPEINNSSGEMDPILLTISILSFFSVALLVILACVLWKKRIKPIVWPSLPDHKKTLEHLCKKPRKNLNVSFNPESFLDCQIHRVDDIQARDEVEGFLQDTFPQQLEESEKQRLGGDVQSPNCPSEDVVVTPESFGRDSSLTCLAGNVSACDAPILSSSRSLDCRESGKNGPHVYQDLLLSLGTTNSTLPPPFSLQSGILTLNPVAQGQPILTSLGSNQEEAYVTMSSFYQNQ
notes: The construct transfected into CHO is not described further; The same entry is used for native CD127 on human PBMC/T cells in functional rows; also called CHO-CD127; IL-7Rα expressed on CHO

Assay [1] addresses recombinant human CD127 extracellular domain (CD127 ECD) (human) (UniProt P16871). In words: BIAcore blocking assay: inhibition ratio of CD127 ECD binding to immobilised IL-7 against antibody concentration. A general note: Surface plasmon resonance follows binding to a sensor surface in real time, without labels.
Assay [2] shares this target. In words: blocking of IL-7/IL-7Rα binding, competitor IL-7; format not given.
The target in assay [3] is human CD127 (IL-7Rα) expressed on cells (CD127-transfected CHO cells; PBMC / CD4+ T cells in functional assays) (human) (UniProt P16871). As to the kind of experiment: binding to CHO cells expressing IL-7Rα (flow cytometry). Background: In flow cytometry, cells or beads pass a laser one at a time.
Assay [4] shares this target. In words: cell-based or functional assay.
Assay [5] has as its target recombinant human CD127 extracellular domain (CD127 ECD) (human) (UniProt P16871). In words: SPR (profile summary).
The target in assay [6] is T1, recombinant human CD127 extracellular domain (CD127 ECD) (human, UniProt P16871 21-219).
T1 construct: The assays only say 'recombinant human CD127 ECD'; also called IL-7Rα EDC; IL-7Rα
T1 chain: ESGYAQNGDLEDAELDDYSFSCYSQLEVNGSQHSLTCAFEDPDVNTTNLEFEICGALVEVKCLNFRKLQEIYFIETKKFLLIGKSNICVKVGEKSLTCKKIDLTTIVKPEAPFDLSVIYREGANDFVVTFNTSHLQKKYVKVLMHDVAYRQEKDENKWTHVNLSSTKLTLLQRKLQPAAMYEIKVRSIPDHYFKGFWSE
As to the kind of experiment: SPR (profile summary; differs from Table 3).

Assay [7] has as its target B6. In words: binding to CHO cells expressing IL-7Rα (flow cytometry).
Assay [8] deals with T1, recombinant human CD127 extracellular …. In words: SPR, Biacore T100, 25° C.; antibody captured on rabbit anti-mouse IgG, CD127 ECD as analyte. The procedure:
Antibody kinetics were assessed using a Biacore T100 system (GE Healthcare) with a reaction temperature of 25° C. Rabbit anti-mouse IgG antibody was immobilized on a CM5 biosensor chip with a final level of […] (response units) using the standard amine coupling kit and procedure. HBS-EP buffer pH 7.4 (consisting of 10 mM HEPES, 0.15 M sodium chloride, 3 mM EDTA and 0.005% v/v surfactant P20) was used as running buffer. Sensograms were run against a reference cell that was blank immobilized using EDC/NHS/ethanol amine. […] The sensor chip surfaces were regenerated with 10 mM Glycine-HCl, pH 1.7. Kd values were calculated using the Biacore evaluation software package.

Assay [9] shares this target. As to the kind of experiment: BIAcore blocking assay: inhibition ratio of CD127 ECD binding to immobilised IL-7 against antibody concentration. The procedure: HBS-EP buffer pH 7.4 (consisting of 10 mM HEPES, 0.15 M sodium chloride, 3 mM EDTA and 0.005% v/v surfactant P20) was used as running buffer. Sensograms were run against a reference cell that was blank immobilized using EDC/NHS/ethanol amine. […] After each injection the sensor chip surfaces were regenerated with 10 mM Glycine-HCl, pH 2.0. […] Inhibition ratio calculated as follows: Inhibition ratio=1−RU(sample)/RU(ECD).

For assay [10], the target named is B6. As to the kind of experiment: cell-based or functional assay.
Assay [11] deals with T1, recombinant human CD127 extracellular …. In words: blocking of IL-7/IL-7Rα binding, competitor IL-7; format not stated in the sentence (BIAcore neutralising assay with immobilised IL-7 is described in 2.11).
For assay [12] the target is unchanged. In words: blocking of IL-7/IL-7Rα binding, competitor IL-7; format not given.
The target is the same in assay [13]. As to the kind of experiment: SPR, Biacore T100; CD127 ECD immobilised on CM5, 9B7 hybridoma supernatant as analyte; table title says 37° C. The protocol:
HBS-EP buffer pH 7.4 (consisting of 10 mM HEPES, 0.15 M sodium chloride, 3 mM EDTA and 0.005% v/v surfactant P20) was used as running buffer. […] Kd values were calculated using the Biacore evaluation software package.

The target is the same in assay [14]. As to the kind of experiment: ELISA, recombinant human CD127 ECD coated on the plate, detection with HRP goat anti-mouse IgG. An excerpt: Anti-CD127 antibodies from the test hybridoma supernatants or purified material were titrated across the plate. The level of binding was detected by treatment with a horse-radish peroxidase (HRP) -conjugated goat-anti-mouse IgG antibody. The ELISA was developed using TMB substrate.
For orientation: An ELISA detects its analyte on a solid surface through an enzyme-linked reagent.

For another assay, the target named is T2, recombinant human IL-7 (human, UniProt P13232 26-177).
T2 sequence (looked up): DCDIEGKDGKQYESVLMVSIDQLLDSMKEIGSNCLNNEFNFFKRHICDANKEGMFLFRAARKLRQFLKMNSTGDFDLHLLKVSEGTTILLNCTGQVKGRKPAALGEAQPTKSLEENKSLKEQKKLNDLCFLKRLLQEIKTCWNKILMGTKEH
In words: flow cytometry competition on CHO-CD127 cells: pre-incubation with IL-7, then staining with 6A3 (competitor read out: 6A3). The protocol: After the incubation, anti-CD127 antibodies were added and the incubation continued for additional 30 min in 4% FCS in DPBS (FACS buffer). Afterward cells were washed in FACS buffer 3 times and stained with anti-mouse IgG ALEXA488 secondary antibody at 1:2000 dilution (Invitrogen Inc. #13-A11017).

What is called IC50 is the concentration needed to halve the response being measured. What is called EC50 is the concentration giving half of the maximal effect. Read a low EC50 as greater potency. The Kd is the concentration at which binding is half-saturated. For orientation: koff means the rate constant with which the complex falls apart. What is called kon is the second-order rate constant of association. The EC50 (read off the curve) is the concentration needed to bring the measured effect to its halfway point.

As for “R34.34 (Dendritics Inc. #DDX0700), commercial anti-human CD127 antibody”, the IC50 (read off the curve) in assay [1] turned out to be 3 µg/mL. In addition, in assay [2], the concentration for half-maximal inhibition (IC50) was 1.38 µg/mL. In assay [3], this molecule showed an EC50 of 0.01 µg/mL. In addition, in assay [4], the IC50 of inhibition of pSTAT5 signalling is 0.67 µg/ml and the IL-17 production in IL-7 induced differentiated T cells (CCR6+ TH17), donors with inhibition was 6 of 6 donors. Further, the Kd in assay [5] was found to be 7.74 nM.

B1: mAb 6A3 (murine anti-human CD127 monoclonal antibody) (antibody, mouse IgG1, V domains shown)
VH: DVQLQESGPGLVKPSQSLSLTCTVTGYSITTDYAWNWIRQFPGNKLEWMGYIFYSGSTTYTPSLKSRISITRDTSKNQFFLQLNSVTTEDTATYYCARGGYDVNYFDYWGQGTTLTVSS
VL: DIQMTQSPASQSASLGESVTITCLASQTIGAWLAWYQQKPGKSPQLLIYAATRLADGVPSRFSGSGSGTKFSFKISSLQAEDFVSYYCQQFFSTPWTFGGGTKLEIK
notes: also called antibody 6A3
Consider B1, for which, in assay [6], the Kd is 7.99 nM and the koff is 0.000334 s⁻¹. Further, a half-maximal response in assay [7] (EC50) required 0.19 µg/mL. In assay [8], the Kd was found to be 7.74 nM, the off-rate (koff) came to 0.000146 s⁻¹ and the kon stood at 18900 M⁻¹ s⁻¹. The “IC50 (read off the curve)” value in assay [9] is around 2 µg/mL. The “IC50 of inhibition of pSTAT5 signalling” value in [10] turned out to be 0.099 µg/ml. For the same molecule, the IC50 in assay [11] is 1.92 µg/mL.

B2: mAb 1A11 (murine anti-human CD127 monoclonal antibody) (antibody, mouse IgG1, V domains shown)
VH: EVQLQQSGPELLKPGASMKISCKASGYSFTGYTMNWVKQSHGKNLEWIGLINPYNGVTSYNQKFKGKATLTVAKSSSTAYMELLSLTSEDSAVYYCARGDGNYWYFDVWGAGTTVTVSS
VL: EIVLTQSPAITAASLGQKVTITCSASSSVTYMHWYQQKSGTSPKPWIYEISKLASGVPVRFSGSGSGTSYSLTISSMEAEDAAIYYCQEWNYPYTFGGGTKLEIK
notes: also called antibody 1A11
On to B2, for which the half-maximal effective concentration (EC50) in [7] came to 0.16 µg/mL. In [8], the dissociation constant (Kd) was 3.44 nM and the dissociation rate constant (koff) was 0.000251 s⁻¹. For the same molecule, in assay [12], the half-maximal inhibitory concentration (IC50) worked out at 1.79 µg/mL. In addition, the “IC50 of inhibition of pSTAT5 signalling” value in assay [10] stood at 0.088 µg/ml.

B3: mAb GR34 (reverse engineered clone of R34.34) (antibody, mouse IgG1, V domains shown)
VH: EVQLQQSGPELVKPGASMKISCKASGYSFTGYTMNWVKQSHGKNLEWIGLINPYSGITSYNQNFKGKATLTVDKSSSTAYMELLNLTSEDSAVYYCARGDGNYWYFDVWGAGTTVTVSS
VL: EIILTQSPAITAASLGQKVTITCSASSSVSYMHWYQQKSGTSPKPWIYEISKLASGVPARFSGSGSGTSYSLTISSMEAEDAAIYYCQYWNYPYTFGGGTKLEIK
notes: also called antibody GR34
With B3, the EC50 in assay [7] worked out at 0.27 µg/mL. Further, in assay [8], the equilibrium dissociation constant (Kd) was found to be 15.3 nM and the off-rate constant (koff) worked out at 0.000875 s⁻¹. Besides, in [12], the IC50 came out at 2.29 µg/mL. In [10], the “IC50 of inhibition of pSTAT5 signalling” value was 0.22 µg/ml.

B4: mAb 6C5 (murine anti-human CD127 monoclonal antibody) (antibody, mouse IgG1, V domains shown)
VH: EVKLLESGGGLVQPGGSLKLSCAASGFAFSAYWMSWVRQAPGKGLEWIGEINPDSSTINCTPSLKDKFIISRDNAKNTLSLQMNKVRSEDTALYYCARRLRPFWYFDVWGAGTTVTVSS
VL: DVLMTQTPLSLPVSLGDQASISCRSSQSIVQSNGNTYLEWYLQKPGQSPKLLIYKVSNRFSGVPDRFSGSGSGTDFTLKISRVEAEDLGVYYCFQGSHVPRTFGGGTKLEIK
notes: also called antibody 6C5
For B4, in assay [8], the Kd turned out to be 24.4 nM, the off-rate (koff) is 0.000436 s⁻¹ and the kon is 17900 M⁻¹ s⁻¹. Moreover, the “IC50 of inhibition of pSTAT5 signalling” value in assay [10] was 50 µg/ml.

B5: mAb 9B7 (murine anti-human CD127 monoclonal antibody) (antibody, IgG1, V domains shown)
VH: QVQLQESGPGLVAPSQSLSITCTVSGFSLSRYNVHWVRQPPGKGLEWLGMIWDGGSTDYNSALKSRLSITKDNSKSQVFLKMNSLQTDDTAMYYCARNRYESGMDYWGQGTTVTVSS
VL: DIVMTQTPSSLTVTAGEKVTMSCKSSQSLLNSGNRKNYLTWYQQKPGQSPKLLIYWASTRESGVPDRFTGSGSGTDFTLIISSVQAEDLAVYYCQNDYTYPFTFGSGTKLEIKR
notes: Mouse hybridoma antibody; also called antibody 9B7; clone 9B7
For the molecule B5, the dissociation constant (Kd) in [13] came to 0.556 nM. The “EC50 (read off the curve)” value in assay [14] is around 0.6 µg/mL.

In the case of B6, the binding result with recombinant human IL-7 was “binds”.
